Test results from US20240117018A1.

What was measured:
Experiment in all cases: cell-based or functional assay
[1] = molecular target: HIV-1 Env of pseudovirus SC05_8C11_2344 (HIV-1)
[2] = molecular target: HIV-1 Env of pseudovirus HIV-16055-2.3 (HIV-1)
[3] = molecular target: HIV-1 Env of pseudovirus MS208.A1 (HIV-1)
[4] = molecular target: HIV-1 Env of pseudovirus REJO4541.67 (HIV-1)
[5] = molecular target: HIV-1 Env of pseudovirus 6240_08_TA5_4622 (HIV-1)
[6] = molecular target: HIV-1 Env of pseudovirus BF1266.431a (HIV-1)
[7] = molecular target: HIV-1 Env of pseudovirus QH0692.42 (HIV-1)
[8] = molecular target: HIV-1 Env of pseudovirus Ce704809221_1B3 (HIV-1)
[9] = molecular target: HIV-1 Env of pseudovirus PVO.4 (HIV-1)
[10] = molecular target: HIV-1 Env of pseudovirus Ce1176_A3 (HIV-1)
[11] = molecular target: HIV-1 Env of pseudovirus 1054_07_TC4_1499 (HIV-1)
[12] = molecular target: HIV-1 Env of pseudovirus Ce2010_F5 (HIV-1)
[13] = molecular target: HIV-1 Env of pseudovirus CNE30 (HIV-1)
[14] = molecular target: HIV-1 Env of pseudovirus Q259.d2.17 (HIV-1)
[15] = molecular target: HIV-1 Env of pseudovirus CNE21 (HIV-1)
[16] = molecular target: HIV-1 Env of pseudovirus CNE5 (HIV-1)
[17] = molecular target: HIV-1 Env of pseudovirus Du172.17 (HIV-1)
[18] = molecular target: HIV-1 Env of pseudovirus HIV-16845-2.22 (HIV-1)
[19] = molecular target: HIV-1 Env of pseudovirus C2101.c01 (HIV-1)
[20] = molecular target: HIV-1 Env of pseudovirus HIV-0013095-2.11 (HIV-1)
[21] = molecular target: HIV-1 Env of pseudovirus TRO.11 (HIV-1)
[22] = molecular target: HIV-1 Env of pseudovirus 62357_14_D3_4589 (HIV-1)
[23] = molecular target: HIV-1 Env of pseudovirus ZM197M.PB7 (HIV-1)
[24] = molecular target: HIV-1 Env of pseudovirus 246F C1G (HIV-1)
[25] = molecular target: HIV-1 Env of pseudovirus ZM135M.PL10a (HIV-1)
[26] = molecular target: HIV-1 Env of pseudovirus ZM109F.PB4 (HIV-1)
[27] = molecular target: HIV-1 Env of pseudovirus Q769.d22 (HIV-1)
[28] = molecular target: HIV-1 Env of pseudovirus Ce0393_C3 (HIV-1)
[29] = molecular target: HIV-1 Env of pseudovirus Du156.12 (HIV-1)
[30] = molecular target: HIV-1 Env of pseudovirus CNE20 (HIV-1)
[31] = molecular target: HIV-1 Env of pseudovirus 0260.v5.c36 (HIV-1)
[32] = molecular target: HIV-1 Env of pseudovirus 1006_11_C3_1601 (HIV-1)
[33] = molecular target: HIV-1 Env of pseudovirus CNE17 (HIV-1)
[34] = molecular target: HIV-1 Env of pseudovirus ZM249M.PL1 (HIV-1)
[35] = molecular target: HIV-1 Env of pseudovirus CAAN5342.A2 (HIV-1)
[36] = molecular target: HIV-1 Env of pseudovirus Du422.1 (HIV-1)

## PGDM1400 (antibody)
[1]
  neutralization IC50: 1.26 mg/L
  neutralization IC80: 3.59 mg/L
[2]
  neutralization IC50: < 0.001 mg/L
  neutralization IC80: 0.003 mg/L
[3]
  neutralization IC50: < 0.001 mg/L
  neutralization IC80: 0.139 mg/L
[4]
  neutralization IC50: 0.028 mg/L
  neutralization IC80: 0.992 mg/L
[5]
  neutralization IC50: > 50 mg/L
  neutralization IC80: > 50 mg/L
[6]
  neutralization IC50: 0.003 mg/L
  neutralization IC80: 0.011 mg/L
[7]
  neutralization IC50: > 50 mg/L
  neutralization IC80: > 50 mg/L
[8]
  neutralization IC50: 0.28 mg/L
  neutralization IC80: 1.1 mg/L
[9]
  neutralization IC50: 0.484 mg/L
  neutralization IC80: 6.49 mg/L
[10]
  neutralization IC50: 0.587 mg/L
  neutralization IC80: 11.6 mg/L
[11]
  neutralization IC50: > 50 mg/L
  neutralization IC80: > 50 mg/L
[12]
  neutralization IC50: > 50 mg/L
  neutralization IC80: > 50 mg/L
[13]
  neutralization IC50: > 50 mg/L
  neutralization IC80: > 50 mg/L
[14]
  neutralization IC50: 0.166 mg/L
  neutralization IC80: > 50 mg/L
[15]
  neutralization IC50: < 0.001 mg/L
  neutralization IC80: 0.002 mg/L
[16]
  IC50 (Titer in TZM.bl cells): < 0.001 mg/L
  IC80 (Titer in TZM.bl cells): < 0.001 mg/L
[17]
  neutralization IC50: 5.18 mg/L
  neutralization IC80: 22 mg/L
[18]
  neutralization IC50: > 50 mg/L
  neutralization IC80: > 50 mg/L
[19]
  IC50 (Titer in TZM.bl cells): 0.006 mg/L
  IC80 (Titer in TZM.bl cells): 0.021 mg/L
[20]
  neutralization IC50: 0.003 mg/L
  neutralization IC80: 0.012 mg/L
[21]
  neutralization IC50: 0.283 mg/L
  neutralization IC80: 1.38 mg/L
[22]
  neutralization IC50: > 50 mg/L
  neutralization IC80: > 50 mg/L
[23]
  neutralization IC50: 0.063 mg/L
  neutralization IC80: 0.285 mg/L
[24]
  neutralization IC50: > 50 mg/L
  neutralization IC80: > 50 mg/L
[25]
  neutralization IC50: > 50 mg/L
  neutralization IC80: > 50 mg/L
[26]
  neutralization IC50: 0.057 mg/L
  neutralization IC80: 0.382 mg/L
[27]
  neutralization IC50: 0.002 mg/L
  neutralization IC80: 0.018 mg/L
[28]
  neutralization IC50: 0.015 mg/L
  neutralization IC80: 0.044 mg/L
[29]
  neutralization IC50: 0.002 mg/L
  neutralization IC80: 0.008 mg/L
[30]
  neutralization IC50: 0.004 mg/L
  neutralization IC80: 0.014 mg/L
[31]
  neutralization IC50: 0.033 mg/L
  neutralization IC80: 0.175 mg/L
[32]
  neutralization IC50: 4.32 mg/L
  neutralization IC80: > 50 mg/L
[33]
  neutralization IC50: 0.007 mg/L
  neutralization IC80: 0.021 mg/L
[34]
  neutralization IC50: 0.016 mg/L
  neutralization IC80: 0.701 mg/L
[35]
  neutralization IC50: > 50 mg/L
  neutralization IC80: > 50 mg/L
[36]
  neutralization IC50: 0.694 mg/L
  neutralization IC80: > 50 mg/L
